Assays:
[1] = molecular target: PXN/paxillin, exogenously expressed in HEK293T cells (human) (UniProt P49023); assay: cross-linking
[2] = molecular target: recombinant PXN WT (human) (UniProt P49023); assay: SEC-MALS

stoichiometry N [1]	stoichiometry N [2]	Substance
2		PXN/paxillin, exogenously expressed in HEK293T cells (from UniProt P49023-2 1-557) (natural protein)
	2	recombinant PXN WT (from UniProt P49023-2 1-557) (natural protein)

— paper doi:10.1101/2023.02.03.526950
